The record followed here is patent publication US20160137713A1 (HANALL BIOPHARMA, published 2016).

Experiment [1] deals with T1, soluble human FcRn (human, UniProt P55899 24-297; P61769 21-119).
T1 construct: extracellular domain;mature; Non-covalent heterodimer secreted by 293 cells, purified on IgG Sepharose; also called shFcRn; soluble FcRn
Put plainly: SPR, shFcRn immobilised, pH 6.0. As to the method: (§1) Measurement of the binding ability of antibody by SPR was performed by immobilizing shFcRn as a ligand onto a Proteon GLC chip (Bio-Rad) and measuring affinity.
(§2) The analysis of ligand and analyte was performed using a Proteon GLC chip, and the interaction was analyzed at a pH of 6.0 and a pH of 7.4. Immobilization of the ligand was activated by injecting a 1:1 mixture of 1×EDAC (EDC) and 1× Surfo-NHS for 5 minutes. shFcRn was diluted in 10 mM sodium acetate (pH 4.5) at a concentration of 25 μg/ml and added to the ligand at a flow rate of 30 μl/min for 5 minutes. […] The analyte antibody was allowed to flow on the immobilized chip at a flow rate of 30 μl/min. […] The association time of the analyte antibody was 240 seconds, and the dissociation time was 600 seconds. Regeneration of the chip was performed by injecting 10 mM glycine (pH 2.5) at a flow rate of 100 μl/min for 18 seconds. Based on sensorgrams resulting from six concentrations of the analyte, kinetics analysis was performed using Proteon XPR36 software.

Experiment [2] concerns the target T1, soluble human FcRn. Put plainly: SPR, shFcRn immobilised, pH 7.4. As for the experimental part: as §1, §2
For experiment [3], the target named is T2, human FcRn on HEK293 cells (human, UniProt P55899 24-365; P61769 21-119).
T2 construct: whole, on cells; also called hFcRn
T2 sequence (P55899 24-365, chain 1 of 2): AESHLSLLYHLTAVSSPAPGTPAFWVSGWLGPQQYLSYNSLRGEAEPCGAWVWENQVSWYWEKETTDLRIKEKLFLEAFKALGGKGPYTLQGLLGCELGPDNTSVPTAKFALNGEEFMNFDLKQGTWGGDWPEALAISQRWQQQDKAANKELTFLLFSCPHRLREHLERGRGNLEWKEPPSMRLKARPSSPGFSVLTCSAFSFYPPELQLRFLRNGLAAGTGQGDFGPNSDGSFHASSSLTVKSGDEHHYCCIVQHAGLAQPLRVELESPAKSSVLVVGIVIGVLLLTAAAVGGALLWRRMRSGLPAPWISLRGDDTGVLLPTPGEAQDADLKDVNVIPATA
T2 sequence (P61769 21-119, chain 2 of 2): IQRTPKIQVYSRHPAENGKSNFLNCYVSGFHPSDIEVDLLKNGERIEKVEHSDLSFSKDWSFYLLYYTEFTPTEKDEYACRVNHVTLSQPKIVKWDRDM
As to the kind of experiment: FACS on hFcRn-overexpressing HEK293 cells at pH 6.0, Alexa488 anti-human goat antibody; MFI relative to hIgG1. As to the method: (§3) In stable HEK293 cells expressing human FcRn, the degrees of binding of antibody to FcRn at various pHs were analyzed using a FACS system. Specifically, 100,000 stable HEK293 cells were washed with PBS and centrifuged in a table top microcentrifuge at 4500 rpm for 5 minutes to obtain pellets. 1 μg of antibody was added to 100 μl of pH 6.0 or pH 7.4PBS/10 mM EDTA. The cell pellets were resuspended in 100 μl of the antibody solution and incubated on ice for 60 minutes. The cells were washed once with 150 μl of buffer having pH difference, and then pellets were obtained therefrom. Alexa488-labeled anti-human antibody goat antibody (1 mg/ml) was diluted at 1:20 in buffer having pH difference, and the pellets were resuspended in 100 μl of the buffer, and then cultured on ice for 60 minutes. The cells were washed once with 150 μl of buffer having pH difference, and pellets were obtained therefrom and resuspended in buffer having pH difference. The suspension was transferred into a tube for FACS analysis. These cells were analyzed by FACS using BD FACSDiva™ v6.1.3 software (BD Bioscience). The results of the analysis were expressed as Mean Fluorescence Intensity (MFI) (see FIG. 2).

For experiment [4], the target named is T2, human FcRn on HEK293 cells. Put plainly: FACS on hFcRn-overexpressing HEK293 cells at pH 7.4, Alexa488 anti-human goat antibody; MFI relative to hIgG1. As to the method: as §3
Experiment [5] addresses T2, human FcRn on HEK293 cells. As to the kind of experiment: FACS competition on hFcRn HEK293 cells at pH 6.0; remaining binding of 100 nM Alexa488-labeled hIgG1 (m14) with 250 nM competitor antibody, percent of the tube without competitor. As for the experimental part: (§4) In stable HEK293 cells expressing human FcRn, the blocking of the antibody against FcRn was analyzed by FACS. The antibody was diluted in binding buffer (PBS pH 6.0, 10 mM EDTA) at concentrations of 2,000 nM, […] to make 50 μl of dilutions, which were dispensed into tubes. […] Stable HEK293 cells were diluted in binding buffer at a concentration of 2,500,000 cells/ml, and 40 μl of the cell dilution was added to each of the labeled antibody-containing tubes. Thus, a final volume of 100 μl contained 100,000 cells, 100 nM labeled antibody and 1000 nM, 500 nM or 250 nM competitor antibody. The cells were washed once with 150 μl of buffer (pH 6.0), and pellets were obtained therefrom and resuspended in 150 μl of buffer having pH difference. The suspension was transferred into a tube for FACS analysis. The cells were analyzed by FACS using BD FACSDiva™ v6.1.3 software (BD Bioscience). The results of the analysis were expressed as mean fluorescence intensity (MFI).
(§5) The MFI of the test group was processed after subtracting the MFI (background signal) measured in cells alone.

The target of experiment [6] is T2, human FcRn on HEK293 cells. As to the kind of experiment: FACS competition on hFcRn HEK293 cells at pH 6.0; remaining binding of 100 nM Alexa488-labeled hIgG1 (m14) with 500 nM competitor antibody, percent of the tube without competitor. As for the experimental part:
as §4, §5

For experiment [7], the target named is T2, human FcRn on HEK293 cells. Put plainly: FACS competition on hFcRn HEK293 cells at pH 6.0; remaining binding of 100 nM Alexa488-labeled hIgG1 (m14) with 1000 nM competitor antibody, percent of the tube without competitor. As to the method: as §4, §5

T1 sequence (P55899 24-297, chain 1 of 2): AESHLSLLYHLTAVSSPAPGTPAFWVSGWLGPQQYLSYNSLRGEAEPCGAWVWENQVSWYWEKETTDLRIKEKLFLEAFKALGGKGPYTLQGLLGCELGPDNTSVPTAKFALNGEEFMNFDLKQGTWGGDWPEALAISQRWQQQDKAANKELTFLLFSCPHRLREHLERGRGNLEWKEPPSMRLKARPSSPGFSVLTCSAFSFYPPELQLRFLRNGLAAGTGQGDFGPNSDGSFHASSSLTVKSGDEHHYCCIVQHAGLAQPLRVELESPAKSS
T1 sequence (P61769 21-119, chain 2 of 2): as the sequence (P61769 21-119, chain 2 of 2) above

B1: HL161-6C (antibody, V domains shown)
VH: QVQLVESGAEVKKPGASVKVSCKASGYTFTSYYMHWVRQAPGQGLEWMGIINPSGGSTSYAQKFQGRVTMTRDTSTSTVYMELSSLRSEDTAVYYCARGGGAFDIWGQGTMVTVSS
VL: DIQMTQSPSSVSASVGDRVTITCRASQGISNWVAWYQQKPGKAPKLLIYAASSLQSGVPSRFSGSGSGTDFTLTISSLQPEDFAIYYCQQGHSFPYTFGQGTKVEIK
notes: Whole human IgG from pNATAB vectors
On to B1, for which the koff (usually a measure of how fast the partners let go of each other) with soluble human FcRn [1] was determined as 0.0019 s⁻¹; with soluble human FcRn [2], 0.0031 s⁻¹. Moreover, the kon – broadly, the second-order rate constant of association – with soluble human FcRn [1] turned out to be 1e+06 M⁻¹ s⁻¹; with soluble human FcRn [2], 470000 M⁻¹ s⁻¹. For the same molecule, the entries for the “Relative MFI (Fold)” value in experiment [3] and in experiment [4] were 0.9 fold and 1.3 fold, respectively. Moreover, in experiment [5], the “Relative MFI(%) at 250nM” value came out at 88.2%. Moreover, the “Relative MFI(%) at 500nM” value in experiment [6] stood at 84.7%. Moreover, in experiment [7], the “Relative MFI(%) at 1000nM” value turned out to be 81.1%.
